Measured values published in patent US20230203170A1 (DRAGONBOAT BIOPHARMACEUTICAL SHANGHAI, published 2023).
Changes are numbered by the printed parent chain. Names may count otherwise.

T1: full-length mouse CSF-1R (RefSeq ID NP_001032948) expressed on HEK293F cells (mouse, UniProt P09581 20-977)
T1 construct: whole, on cells
T1 sequence (looked up): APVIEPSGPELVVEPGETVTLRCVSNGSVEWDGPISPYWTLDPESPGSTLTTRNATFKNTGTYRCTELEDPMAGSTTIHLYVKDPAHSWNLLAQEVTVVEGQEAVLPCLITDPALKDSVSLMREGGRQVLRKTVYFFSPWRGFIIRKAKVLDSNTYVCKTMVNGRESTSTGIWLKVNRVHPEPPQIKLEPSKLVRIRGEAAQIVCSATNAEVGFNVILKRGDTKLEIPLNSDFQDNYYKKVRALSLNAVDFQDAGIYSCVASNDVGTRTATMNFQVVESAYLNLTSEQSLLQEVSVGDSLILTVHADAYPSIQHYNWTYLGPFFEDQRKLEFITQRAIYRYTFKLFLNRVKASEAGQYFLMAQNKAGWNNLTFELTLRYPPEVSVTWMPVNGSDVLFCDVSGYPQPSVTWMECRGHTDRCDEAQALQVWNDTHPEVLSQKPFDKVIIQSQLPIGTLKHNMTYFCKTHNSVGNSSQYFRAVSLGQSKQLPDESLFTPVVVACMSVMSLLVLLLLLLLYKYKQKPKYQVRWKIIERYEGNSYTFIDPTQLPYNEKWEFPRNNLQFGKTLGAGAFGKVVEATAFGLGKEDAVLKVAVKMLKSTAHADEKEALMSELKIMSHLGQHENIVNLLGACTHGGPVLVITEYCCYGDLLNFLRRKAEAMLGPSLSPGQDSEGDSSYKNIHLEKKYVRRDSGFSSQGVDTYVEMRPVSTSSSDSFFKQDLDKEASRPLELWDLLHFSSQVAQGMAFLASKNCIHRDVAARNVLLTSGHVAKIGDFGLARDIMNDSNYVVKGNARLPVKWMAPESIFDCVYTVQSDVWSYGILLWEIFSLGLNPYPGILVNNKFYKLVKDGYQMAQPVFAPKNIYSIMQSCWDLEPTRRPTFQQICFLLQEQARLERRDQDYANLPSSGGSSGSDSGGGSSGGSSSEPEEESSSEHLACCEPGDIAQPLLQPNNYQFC

B1: TY21371 (antibody, V domains shown)
VH: EVQLVESGGGLVQPGGSLRLSCAASGFTFSGYAIHWVRQAPGKGLEWVSVISGYGSSTYYADSVKGRFTISRDNSKNTLYLQLNSLRAEDTAVYYCARDPGVGGFDVWGQGTLVTVSS
VL: DIQLTQSPSSLSASVGDRVTITCRASQSVRRRFLAWYQQKPGKAPKLLIYDASSLESGVPSRFSGSGSGTDFTLTISSLQPEDFATYYCQQYYPIPRTFGQGTKVEIK
notes: Human IgG4 isotype with S241P mutation (Uniprot P01861); Its IgG1 format is called TY22179 (used only in PK/PD)
B2: TY21372 (antibody, human IgG4, V domains shown)
VH: B1 VH with F27Y, G31D, S57T, D99A, P100S, G101S, V102Y, V107Y
VL: DIQLTQSPSSLSASVGDRVTITCRASQDVSTAVAWYQQKPGKAPKLLIYDASNRATGIPSRFSGSGSGTDFTLTISSLQPEDFATYYCQQYYPWPWTFGQGTKVEIK
notes: Human IgG4 isotype with S241P mutation
B3: TY21433 (antibody, human IgG4, V domains shown)
VH: B1 VH with G31N, S57T, D99S, P100T, G101V, V102A, G103T, G104P, D106A, V107Y
VL: B2 VL with R24K, S30R, D50A, N53T, R54L, A55Q, T56S, I58V, Y91S
notes: as for B2
B4: TY21375 (antibody, human IgG4, V domains shown)
VH: EVQLVESGGGLVQPGGSLRLSCAASGFTFSDYAIHWVRQAPGKGLEWVSVISGYGGSTYYADSVKGRFTISRDNSKNTLYLQLNSLRAEDTAVYYCARSGGGGYYFDYWGQGTLVTVSS
VL: DIQLTQSPSSLSASVGDRVTITCRASQGIRSYLAWYQQKPGKAPKLLIYAASSLQSGVPSRFSGSGSGTDFTLTISSLQPEDFATYYCQQSYHWPLTFGQGTKVEIK
notes: as for B2
B5: TY21428 (antibody, human IgG4, V domains shown)
VH: B4 VH with D31N, A33G, S99R, G101L, G102T, G103S, Y104T
VL: DIQLTQSPSSLSASVGDRVTITCRASQSVGSWLAWYQQKPGKAPKLLIYDASNLETGVPSRFSGSGSGTDFTLTISSLQPEDFATYYCQQSYPIPPTFGQGTKVEIK
notes: as for B2
B6: TY21373 (antibody, human IgG4, V domains shown)
VH: EVQLVESGGGLVQPGGSLRLSCAASGYSISSGYYWGWIRQAPGKGLEWVSSISGYGSSTYYADSVKGRFTISRDNSKNTLYLQLNSLRAEDTAVYYCARGAYGYFDYWGQGTLVTVSS
VL: DIQLTQSPSSLSASVGDRVTITCPASSSVSYIHWYQQKPGKAPKLLIYDASNLETGVPSRFSGSGSGTDFTLTISSLQPEDFATYYCQQYYPWPWTFGQGTKVEIK
notes: as for B2
B7: TY21429 (antibody, human IgG4, V domains shown)
VH: EVQLVESGGGLVQPGGSLRLSCAASGYTFSNYAIHWVRQAPGKGLEWVSAISGTGSSTYYADSVKGRFTISRDNSKNTLYLQLNSLRAEDTAVYYCARHSHSRYAFDYWGQGTLVTVSS
VL: B6 VL with P24R, S27H, S28V, V29R, S30T, Y31A, I32V, H33A
notes: as for B2
B8: TAC2205 (antibody, human IgG4, V domains shown)
VH: QVQLVQSGAEVKKPGSSVKVSCKASGYTFTDNYMIWVRQAPGQGLEWMGDINPYNGGTTFNQKFKGRVTITADKSTSTAYMELSSLRSEDTAVYYCARESPYFSNLYVMDYWGQGTLVTVSS
VL: EIVLTQSPATLSLSPGERATLSCKASQSVDYDGDNYMNWYQQKPGQAPRLLIYAASNLESGIPARFSGSGSGTDFTLTISSLEPEDFAVYYCHLSNEDLSTFGGGTKVEIK
B9: TAC2188 (antibody, human IgG4, V domains shown)
VH: QVQLVQSGAEVKKPGASVKVSCKASGYTFTSYDISWVRQAPGQGLEWMGVIWTDGGTNYAQKLQGRVTMTTDTSTSTAYMELRSLRSDDTAVYYCARDQRLYFDVWGQGTTVTVSS
VL: DIQMTQSPSSLSASVGDRVTITCRASEDVNTYVSWYQQKPGKAPKLLIYAASNRYTGVPSRFSGSGSGTDFTLTISSLQPEDFATYYCQQSFSYPTFGQGTKLEIK

target: T2, human CSF1R-His (Acrobiosystem, CSR-H5228) (human, UniProt P07333 20-512, limits assumed); assay: SPR Biacore T200; IgG captured by anti-human Fc, CSF1R-His as analyte, 1:1 fit
T2 construct: Bought protein; The catalogue number is printed only for the SPR assay; also called human CSF-1R protein; not shown: His tag
Text: The specific binding affinity and kinetics of antibodies against human CSF-1R protein were examined by surface plasmon resonance (SPR) analysis using a Biacore™ T200 instrument (GE, USA) according to the manufacturer’s guidelines. Anti-Human IgG (Fc) antibody (Sigma, I2136) was immobilized on CM5 chips according to the instructions of Amine Coupling kit (GE Biacore #BR-1000-50). The immobilized Anti-Human IgG (Fc) antibody was used to capture the antibodies. […] The running buffer used was 0.01 M HEPES, 0.15 M NaCl, 3 mM EDTA, 0.05% (v/v) surfactant P20, pH 7.4. Corresponding controls were conducted in each case using a blank flow cell with no protein captured for “background” subtraction. The association and dissociation curves were fitted to a 1:1 Langmuir binding model using Biacore T200 Evaluation Software (GE, USA) according to the manufacturer’s guidelines.

| Kd | Binder |
| --- | --- |
| 0.6 nM | B1 |
| 1.61 nM | B2 |
| 3.51 nM | B3 |
| 35.5 nM | B4 |
| 9.86 nM | B5 |
| 23.6 nM | B6 |
| 3.18 nM | B7 |
| 0.67 nM | B8 |

target: T1, full-length mouse CSF-1R (RefSeq ID …); assay: flow cytometry on HEK293F cells transiently expressing full-length mouse CSF-1R (IRES-EGFP vector), Alexa Fluor 647 anti-human Fc detection
Method: (§1) The specificities of the antibodies were also assessed against human, monkey and mouse CSF-1R that are transiently expressed on the surface of HEK293F cells (FIG. 1). Briefly, HEK293F cells were transfected with a plasmid expressing full-length human, monkey (RefSeq ID XP_015307616) or mouse (RefSeq ID NP_001032948) CSF-1R from a bicistronic IRES vector. EGFP was used to identify the transfected cells. After 40 hrs, the transfected cells were harvested and then washed once with 1% PBSA buffer (1% (w/v) BSA in 1×PBS). Cells were then incubated with various IgGs (each at 100 nM) for 1 hr at room temperature, washed once with pre-chilled 1% PBSA buffer, and incubated with Alexa Fluor® 647 conjugated mouse anti-human Fc antibodies for 30 min on ice. The cells were washed once prior to analysis by flow cytometry (Beckman® CytoFlex).

| binding result | Binder |
| --- | --- |
| no binding (tested: 100 nM) | B1 |
| no binding (tested: 100 nM) | B2 |
| no binding (tested: 100 nM) | B4 |
| no binding (tested: 100 nM) | B6 |

target: T1, full-length mouse CSF-1R (RefSeq ID …); assay: flow cytometry on HEK293F cells transiently expressing full-length mouse CSF-1R (IRES-EGFP vector), Alexa Fluor 647 anti-human Fc detection [Conti.]
Method: as §1

| binding result | Binder |
| --- | --- |
| no binding (tested: 100 nM) | B3 |
| no binding (tested: 100 nM) | B5 |
| no binding (tested: 100 nM) | B9 |
| no binding (tested: 100 nM) | B7 |
| no binding (tested: 100 nM) | B8 |

target: T3, full-length human CSF-1R expressed on cells (human, UniProt P07333 20-972); assay: flow cytometry on HEK293F cells transiently expressing full-length human CSF-1R (IRES-EGFP vector), IgG at 100 nM, Alexa Fluor 647 anti-human Fc detection
T3 construct: whole, on cells
Method: as §1

| percent of cells in the upper right quadrant (APC Ab binding positive, FITC Ag display positive) | Binder |
| --- | --- |
| 40.2% | B1 |
| 37.4% | B2 |
| 43.8% | B4 |
| 37.4% | B6 |

target: T1, full-length mouse CSF-1R (RefSeq ID …); assay: flow cytometry on HEK293F cells transiently expressing full-length mouse CSF-1R (IRES-EGFP vector), IgG at 100 nM, Alexa Fluor 647 anti-human Fc detection
Method: as §1

| percent of cells in the upper right quadrant (APC Ab binding positive, FITC Ag display positive) | Binder |
| --- | --- |
| 3.71% | B1 |
| 0.081% | B4 |
| 0.77% | B6 |

target: T4, full-length monkey CSF-1R (RefSeq ID XP_015307616) expressed on HEK293F cells (monkey, UniProt A0A2K5WG90 20-976); assay: flow cytometry on HEK293F cells transiently expressing full-length monkey CSF-1R (IRES-EGFP vector), IgG at 100 nM, Alexa Fluor 647 anti-human Fc detection
T4 sequence (A0A2K5WG90 entry or part of it limits assumed, form in doubt): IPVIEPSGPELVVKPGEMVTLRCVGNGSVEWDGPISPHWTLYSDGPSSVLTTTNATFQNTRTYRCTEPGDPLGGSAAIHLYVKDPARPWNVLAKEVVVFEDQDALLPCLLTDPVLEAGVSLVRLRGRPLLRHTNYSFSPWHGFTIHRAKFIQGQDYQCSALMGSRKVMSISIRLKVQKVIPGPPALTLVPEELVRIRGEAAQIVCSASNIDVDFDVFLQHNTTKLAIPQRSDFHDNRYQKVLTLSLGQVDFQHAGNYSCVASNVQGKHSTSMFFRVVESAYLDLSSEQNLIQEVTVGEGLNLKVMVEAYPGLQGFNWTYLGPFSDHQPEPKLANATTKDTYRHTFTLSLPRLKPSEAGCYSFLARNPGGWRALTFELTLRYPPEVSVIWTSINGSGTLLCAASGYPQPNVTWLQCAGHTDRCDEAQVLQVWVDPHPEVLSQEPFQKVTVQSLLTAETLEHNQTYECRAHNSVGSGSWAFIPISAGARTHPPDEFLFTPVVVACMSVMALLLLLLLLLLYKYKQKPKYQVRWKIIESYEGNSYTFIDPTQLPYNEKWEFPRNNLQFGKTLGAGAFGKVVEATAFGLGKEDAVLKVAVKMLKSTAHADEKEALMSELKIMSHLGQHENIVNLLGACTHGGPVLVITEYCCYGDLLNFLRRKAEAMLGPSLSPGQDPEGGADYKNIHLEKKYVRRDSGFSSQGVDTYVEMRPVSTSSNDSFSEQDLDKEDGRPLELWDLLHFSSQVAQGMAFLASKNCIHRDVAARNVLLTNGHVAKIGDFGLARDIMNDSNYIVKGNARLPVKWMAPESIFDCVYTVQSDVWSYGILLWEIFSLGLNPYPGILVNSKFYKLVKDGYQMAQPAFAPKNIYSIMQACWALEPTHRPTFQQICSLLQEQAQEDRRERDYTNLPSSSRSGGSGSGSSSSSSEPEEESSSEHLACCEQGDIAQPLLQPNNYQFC
Method: as §1

| percent of cells in the upper right quadrant (APC Ab binding positive, FITC Ag display positive) | Binder |
| --- | --- |
| 29.5% | B1 |
| 33.7% | B2 |
| 32.6% | B4 |

target: T3, full-length human CSF-1R expressed on …; assay: flow cytometry on HEK293F cells transiently expressing full-length human CSF-1R (IRES-EGFP vector), IgG at 100 nM, Alexa Fluor 647 anti-human Fc detection [Conti.]
Method: as §1

| percent of cells in the upper right quadrant (APC Ab binding positive, FITC Ag display positive) | Binder |
| --- | --- |
| 41.3% | B5 |

target: T4, full-length monkey CSF-1R (RefSeq ID …); assay: flow cytometry on HEK293F cells transiently expressing full-length monkey CSF-1R (IRES-EGFP vector), IgG at 100 nM, Alexa Fluor 647 anti-human Fc detection [Conti.]
Method: as §1

| percent of cells in the upper right quadrant (APC Ab binding positive, FITC Ag display positive) | Binder |
| --- | --- |
| 31.3% | B5 |
| 34.2% | B7 |
